For 1 molecule, activity results are on record in US20250277199, “NOVEL CRISPR-CAS NUCLEASES FROM METAGENOMES” (Brain Biotech AG, published 2025).

This data set addresses T1, BMC13 (uncultured bacterium (metagenome)).
T1 chain: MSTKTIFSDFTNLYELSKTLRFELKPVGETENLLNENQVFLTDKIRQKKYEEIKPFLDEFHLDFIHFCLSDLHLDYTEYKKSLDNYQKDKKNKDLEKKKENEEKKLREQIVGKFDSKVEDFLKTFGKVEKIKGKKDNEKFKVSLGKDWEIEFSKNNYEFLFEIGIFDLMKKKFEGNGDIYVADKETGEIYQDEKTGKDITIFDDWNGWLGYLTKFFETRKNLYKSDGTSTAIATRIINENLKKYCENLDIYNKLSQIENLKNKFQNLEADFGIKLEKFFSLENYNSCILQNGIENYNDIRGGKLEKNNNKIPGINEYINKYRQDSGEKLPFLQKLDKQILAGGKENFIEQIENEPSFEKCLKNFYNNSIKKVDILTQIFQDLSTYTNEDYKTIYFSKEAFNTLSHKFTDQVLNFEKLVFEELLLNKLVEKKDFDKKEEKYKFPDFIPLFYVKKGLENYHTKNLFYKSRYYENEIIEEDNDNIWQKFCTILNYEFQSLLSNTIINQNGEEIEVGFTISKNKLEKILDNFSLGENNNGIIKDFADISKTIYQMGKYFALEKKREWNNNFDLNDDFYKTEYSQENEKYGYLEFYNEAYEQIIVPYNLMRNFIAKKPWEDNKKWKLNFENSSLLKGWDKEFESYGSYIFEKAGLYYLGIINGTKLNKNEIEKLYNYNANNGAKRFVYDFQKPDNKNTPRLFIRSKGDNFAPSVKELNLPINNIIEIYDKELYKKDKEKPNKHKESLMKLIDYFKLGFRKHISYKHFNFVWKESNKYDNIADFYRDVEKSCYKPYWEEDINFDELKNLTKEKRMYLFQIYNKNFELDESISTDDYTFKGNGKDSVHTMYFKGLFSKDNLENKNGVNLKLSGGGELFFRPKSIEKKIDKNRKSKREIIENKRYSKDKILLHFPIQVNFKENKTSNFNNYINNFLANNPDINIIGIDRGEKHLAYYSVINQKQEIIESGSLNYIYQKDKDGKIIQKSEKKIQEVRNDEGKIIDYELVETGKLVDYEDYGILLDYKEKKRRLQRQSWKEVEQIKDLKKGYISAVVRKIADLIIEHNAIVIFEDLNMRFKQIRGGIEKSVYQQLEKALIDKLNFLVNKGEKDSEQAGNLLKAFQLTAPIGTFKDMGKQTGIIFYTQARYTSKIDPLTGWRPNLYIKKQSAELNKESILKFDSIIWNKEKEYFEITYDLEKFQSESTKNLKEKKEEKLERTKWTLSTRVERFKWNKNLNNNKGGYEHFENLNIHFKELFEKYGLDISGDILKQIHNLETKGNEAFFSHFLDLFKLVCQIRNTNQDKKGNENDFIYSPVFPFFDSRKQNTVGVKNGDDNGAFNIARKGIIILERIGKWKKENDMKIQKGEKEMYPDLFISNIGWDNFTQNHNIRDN
Kind of data set: cell_activity; PAM not stated; E. coli depletion, 30 C. As for the experimental part: Overnight grown pre-cultures were diluted into fresh 60 ml LB-Kanamycin (25 μg/ml) (Example 4) or LB-Kanamycin (25μg/ml)/Nourseothricin (50 μg/ml) medium (Example 5) to obtain an optical density at 600 nm (OD600) of 0.06. The inoculated medium was incubated at 30° C. on a horizontal shaker at 250 rpm until the culture reached an optical density at OD600 of 0.2. For induced BMC (NN) nuclease expression, 600 μl 20% L-(+)-arabinose (w/v) was added to the culture at a final concentration of 0.2% (v/v). The cultivation was continued until the culture reached an optical density at OD600 of 0.5. Subsequently 50 ml culture was transferred into one 50 ml conical tube and harvested by centrifugation at 4° C. for 5 min and 4000×g. Pelleted cells were resuspended in 50 ml ultrapure water (ice-cold) and centrifuged at 4° C. for 5 min and 4000×g.
This washing procedure was repeated twice. Washed cells were resuspended in 25 ml 10% (w/w) glycerin and re-centrifuged at 4° C. for 5 min and 4000×g. The pelleted cells were resuspended in 5 ml 10% (w/w) glycerin. After the final centrifugation step at 4° C. for 5 min and 4000×g, the cells were resuspended in 125 μl 10% (w/w) glycerin. Aliquots of 25 μl competent cells were stored at −80° C. until use. For the transformation procedure, aliquots of competent cells were thawed on ice and 50-100 ng plasmid DNA (CRISPR/gRNA-Ec) was added. Prepared cells were electroporated at 1800 V, 25 μF and 200 Ω in 1 mm gap size electroporation cuvettes, using the Bio-Rad Gene Pulser Xcell Electroporation System. Subsequently, 975 μL of NEB® 10-beta/Stable Outgrowth Medium was added immediately after the pulse to the transformed cells. Regeneration was done at 30° C. on a horizontal shaker at 250 rpm. Finally, 25-100 μl of the cell suspension was plated onto selective M9-Glucose agar plates supplemented with Kanamycin (25 μg/ml)/Ampicillin (100 μg/ml) (Example 4) or Kanamycin (25 μg/ml)/Ampicillin (100 μg/ml)/Nourseothrin (50 μg/ml) (Example 5). Growth of transformed E. coli cells on selective agar plates was screened for 48 h at 30° C.
As described above, each of the BMC01, BMC02, BMC03, BMC04, BMC05, BMC07, BMC08, BMC09, BMC10, BMC11, BMC12, BMC13, BMC14, or BMC15 nucleases was co-transformed into E. coli with a gRNA targeting the E. coli malQ gene to visualize a) the activity and b) the DNA targeting efficiency of the BMC nucleases.

B1: malQ gRNA (BMC stem-loop + 24 nt spacer) ; malQ protospacer (ssRNA ; dsDNA)
RNA: GAUUUCUACUAUUGUAGAUGUGGCGGUACGUUGAUGCAUCGCG
DNA 1: GTGGCGGTACGTTGATGCATCGCG
DNA 2: CGCGATGCATCAACGTACCGCCAC
In the case of B1, the activity is > 99.9 % colony reduction.
